This note sets out measurements from article PMC12658125, “Oligomerisation of Ku from Mycobacterium tuberculosis promotes DNA synapsis” (Nature Communications, 2025).

Data set [1] concerns the target T1, Ku-Mtb (Mycobacterium tuberculosis, UniProt P9WKD9 1-273).
T1 sequence: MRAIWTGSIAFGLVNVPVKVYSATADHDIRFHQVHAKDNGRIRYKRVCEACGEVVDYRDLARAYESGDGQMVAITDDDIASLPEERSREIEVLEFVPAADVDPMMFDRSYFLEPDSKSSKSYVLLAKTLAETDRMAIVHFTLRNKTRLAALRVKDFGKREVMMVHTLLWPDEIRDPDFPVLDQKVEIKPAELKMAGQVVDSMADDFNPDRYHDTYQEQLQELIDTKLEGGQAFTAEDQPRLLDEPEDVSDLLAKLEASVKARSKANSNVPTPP
Nature of the data set: EMSA; 5 mM MgCl2. The settings on record: protein: recombinant; tags: His (Ni-NTA purified, pET45b); chain copies: 2; blunt. For orientation: In EMSA bound probe runs differently from free probe, usually more slowly.

The target in data set [2] is T1, Ku-Mtb. Nature of the data set: FIDA (hydrodynamic radius). The note with it: protein: recombinant; tags: His (Ni-NTA purified, pET45b); chain copies: 2; label: 5' FAM on strand 1; 3' overhang 20 nt on strand 1.
For data set [3], the target named is T1, Ku-Mtb. In words: EMSA. The note with it: protein: recombinant; tags: His (Ni-NTA purified, pET45b); chain copies: 2; label: 5' FAM on strand 1; 3' overhang 20 nt on strand 1.

B1: Blunt-DNA 50 bp (dsDNA)
DNA 1: CCTCTAGACCTGTACTACTCGAGAGATCGATCGACAGACGATGACTTAGC
DNA 2: GCTAAGTCATCGTCTGTCGATCGATCTCTCGAGTAGTACAGGTCTAGAGG
For B1, the binding result with Ku-Mtb [1] is recorded as “binds”.

B2: FAM-DNA, 32 bp with 3' 20dT overhang (mixed)
DNA 1: GGAATGTAACCATCGTTGGTCGGCAGCAGGGCTTTTTTTTTTTTTTTTTTTT
DNA 2: GCCCTGCTGCCGACCAACGATGGTTACATTCC
Consider B2, for which the binding result with Ku-Mtb [2] and with Ku-Mtb [3] was “binds” each time.
